Assays:
[1] = target: RelA homodimer as used for SPR (murine) (UniProt Q04207); test: SPR
[2] = target: Oregon Green 488-labelled RelA dimerization domain homodimer (murine) (UniProt Q04207); test: fluorescence polarisation
[3] = target: RelA-p50 heterodimer as used for SPR (murine) (UniProt Q04207); test: SPR
[4] = target: Oregon Green 488-labelled p50(39–350)-cRel(1–294) heterodimer (murine) (UniProt P25799); test: fluorescence polarisation
[5] = target: Oregon Green 488-labelled RelA(19–321)-p50(39–350) heterodimer (murine) (UniProt Q04207); test: fluorescence polarisation
[6] = target: RelA (Mus musculus) (UniProt Q04207); details: cited from earlier work
[7] = target: labelled p50(39–350) homodimer (murine) (UniProt P25799); test: fluorescence polarisation

IKBα(67–287) (from UniProt P25963 67-287) (domain or fragment)
Kd [1]: 0.054 nM | Kd [2]: 0.28 nM

IKBβ(50–359) (domain or fragment)
Kd [1]: 0.07 nM | Kd [3]: 1.1 nM | Kd [4]: 0.92 nM | Kd [5]: 0.89 nM | Kd [2]: 0.072 nM

RelA (from UniProt Q04207)
Kd [6]: 800 nM

B1: (His)6-IKBε(40–364) (domain or fragment)
chain: SSQSGCPQPWRHAPETHKEPEKEDADGERADSTYASSSLTESFPLLERPEAKDPSPPAPGSPLPPAGVLSPQQLEALTYISEDGDTLLHLAVIHEAPSVLFCCLAFLPQEVLDIQNNLYQTALHLAVHLDQPDVVRALVLKGASRILQDQHGDTALHVACRRQNLACACCLLEEQPEPGRQLSHPLDLQLKNWQGLACLHIATLQRNQPLIELLLQNGADIDVQEGTSGKTALHLAVETQERSLVQFLLQAGARVDARMLNGCTPLHLAAGRGLNSISSTLCEAGADSLLLNVEDETPQDLAEDLLSYLPFDDLKISGKPLLCTD
Kd [7]: 0.81 nM

Source: paper PMC6642826
